The target in experiment [1] is SNX27 PDZ (amino acids 740–141) (human, UniProt Q96L92 43-136). The experiment in a line: fluorescence polarisation. Conditions: both partners purified. Background: Fluorescence polarisation rises when a labelled molecule tumbles more slowly, as on binding a larger partner.
The target in experiment [2] is T1, MPP5 PDZ (amino acids 238–336) (human, UniProt Q8N3R9 238-336).
T1 sequence (looked up): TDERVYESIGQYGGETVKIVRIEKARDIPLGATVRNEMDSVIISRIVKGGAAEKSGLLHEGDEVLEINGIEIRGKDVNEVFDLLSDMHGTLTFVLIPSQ
The experiment in a line: fluorescence polarisation. Conditions: both partners purified.

No end group written: not given here.

For NSSRVPDLLV (also: FITC-labeled, also called peptide from the E protein) [FITC-labeled peptide of the C-terminus of the SARS-CoV-2 E protein (E66-77)], the equilibrium dissociation constant (Kd) (as a rule, the concentration at which binding is half-saturated) was greater than 400 µM in experiment [1] and 400 ± 55 µM in experiment [2].

In turn, EPTTTTSVPL (also: FITC-labeled) [FITC-labeled peptide of the C-terminus of SARS-CoV-2 ORF3a (ORF3A 266-275)] yielded a dissociation constant (Kd) in experiment [1] greater than 400 µM.

The record behind these values is publication PMC9610207 (Viruses, 2022).
